Data taken from the nanobody polyreactivity screen of Harvey et al. (2022).

Assay: yeast display, Sf9 membrane polyspecificity reagent, FACS + sequencing; frameworks hold sequencing errors
Method in brief: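 A nanobody's polyreactivity label depends on the gate it was sorted from. Yeast display cells were stained with 10% biotinylated, detergent-solubilized Sf9 membrane reagent for 1 hour at 4 °C, enriched on streptavidin microbeads and sorted by FACS. The low and high (top ~1%) gates were set on anti-HA fluorescence for expression and streptavidin fluorescence for reagent binding.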

QVQLVESGGGLVQAGGSLRLSCAASGCTFSIYAMGWYRQAPGKERELVAAFTGTVGSTYYADSVKVRFTISRDNAKNTVYLQMKSLKPEDTAVYYCNVDWFWNWRGYYWGQGTQVTVSS
polyreactivity (PSR sort gate): low polyreactivity

QVQLVESGGGLVHAGGSLRLSCASSGSIFIRNAMGWYRQAPGKERELVASISRSGASTRYADSVKGLFTISRDNAKNTVYLQMNSLNPEDTAVYYCNDVIRRYFVPSSYDYWGQGTQVTVSS
polyreactivity (PSR sort gate): high polyreactivity

QVQLVESGGGLVQAGGSLRLSCAASGSTFIYYAMGWYRQAPGKERELVAGISIRGGSTYADSVKGRFTISRDNAKNTVYLQKNSLKPEDTAVYFCNAYKRIKANGYAIRYYYWGQGTQVTVSS
polyreactivity (PSR sort gate): high polyreactivity

QVQLVESGGGLVQAGGSLRLSCAASGRTIDRNAMGWYRQPPGKERELVAAISGSGGRTYYADSVKGRFTISRDNEKNSVYLQMNSLKPEDTAVYYCAARVGSSPSKSKYDYWGQGTQVTVSS
polyreactivity (PSR sort gate): high polyreactivity

QVQLVESGGGLVQAGGSLRLSCAASGSIFYKNAMGWYRQAPGKERELVAAISYSGGSTYYADSVKGRFTISRDNAKNTVYLQMNSLKPEDTAVYYCAAKGGAWGQGTQVTVSS
polyreactivity (PSR sort gate): high polyreactivity

QFHLVESGGGLVQAGGSLRLSCAASGSTFWFNVMGWYRQAPGKEREFVAAISSIGGSTYYADSVKGRFTISRDNAKNTVYLQMNSMKPEDTAVYYCAVEVVRVYRYDYWGQGTQVTVTS
polyreactivity (PSR sort gate): low polyreactivity

QVQLVESVVGLVQAGGSLRLSCASSGSTFGANAMGRYRQAPGKEREFLAAISRSGVRTYYADSVKGRFTISRDNAKKTVYLQMNSLKPEDTAVYYCAADGYWWTYTRYDYWGQGTQVTVSS
polyreactivity (PSR sort gate): low polyreactivity

QVQLVESGGGLVQAGGSLRLSCAASGYIFVYNAMGWYRQAPGKERELVAAITDGGGSTYADSVKGRFTISRDNAKNTVYLQMNSLKPEDTAVYYCAARYSDTTWYVLYYYWGQGTQVTVSS
polyreactivity (PSR sort gate): low polyreactivity

QVQLVESGGGLVQAGGSLRLSCAASGSTFVGTALGWYRQAPGKVRELVATISNSGGRTYYADSVKGRFTISRDNAKNTVYLQMNSLKPEDTAVYYCAADHPVFGPGYSFDYWGQGTQVTVSS
polyreactivity (PSR sort gate): low polyreactivity

QVQLVESGGGLVQAGGSLRLICAASGYTFFFYAMGWYRQAPGKEREFVAAITWRGDSTYYADSVKGRYTISRDNAKNTVYLQMNSLKPEDTAVYYCAADPGFTWSRRMDYWGHGTQVTVSS
polyreactivity (PSR sort gate): low polyreactivity

HVQLVESVGGLVQAGGSLRLSCAASGRILGDNVMGWYRQAPGKERELVAAISSGSGSTYYADSVKGRFTISRDNAKNTVYLQMNSLKPEDTAVYYCAAGPYIYPRYDYWGQGTQVTVSS
polyreactivity (PSR sort gate): low polyreactivity

QVQLVESGGGLVQAGGSLRLSCAASGRIFTYYAMGWYRQAPGKEREFVAAISRSGGSTYYADSVKGRFTISRDNAKNTVYFQMNSLKPEDTAVYSCAADPPYRGRRGFDHNYWGQGTQVTVSS
polyreactivity (PSR sort gate): high polyreactivity

QVQLVESGGGLVQAGCSLRLSCAASGRIFNWYGMGWYRQAPGKERELVAGITYSASRTYYADSVKGRFTISRDNAKNTVYLQMNSLKPEDTAVYYCAAGRYHRDDGYDYWGQGTQVTVSS
polyreactivity (PSR sort gate): low polyreactivity

QVQLVESGGGLVQAGGSLRLSCAASGSIFEWYAMGWYRQAPGKERELVAAINSGGSTYYADSVKGRFTISRDNAKNTVYLQMNSLKPEDTAVYYCNADTLLQDRLGDWYDYDYWGQGTQVTVSS
polyreactivity (PSR sort gate): low polyreactivity

QVQLVESGGGLVQAGGSLRLSCAASGGTIAYNAMGWYRQAPWKERELVAAISSSGGRTYYADSVKGRFTITRDNAKNTVYLQMNRLKPEDTAVYYCATPVTNGFDYWGQGTQVTVSS
polyreactivity (PSR sort gate): high polyreactivity

QVQLVESAGGLVQAGGSLRLSCAASGSILTSYAMGWYRQAPGKERELVAAINGSGGSTFYADSVKGRFTISRDNAKNTVYLQMNSLKPEDTAVYYCNTGGPRGTTYDYWGQGTQVTVSS
polyreactivity (PSR sort gate): low polyreactivity

QVQLVESGGGLVQAGGSLRLSCAASGRIFPGNTMGWYRQAPGKERELVAAISSSTGNTYYADSVKGRFTISRDNAKNTVYLQMNSLKPEDTAVYYCAARTRQISIVGYNYWGQGTQVTVSS
polyreactivity (PSR sort gate): high polyreactivity

QVQRVESGGGLVQAGGSLRLSCAASGRIFIANAMGWYRQAPGKERELVAAISFSGGSTYYADSVKGRFTISRDHAKTTVYLQMNSLNPEDTAVYYCNALYTSYYRPSGMGYWGQGTQVTVSS
polyreactivity (PSR sort gate): high polyreactivity

QVQLVESGGGLVQAGGSLRLSCAASGRIFQGYVMGWYRQAQGQERELVAAITTGGSTYYADSVKGRFTISRDNAKNTVYLQMNSLKPEDTAVYYCNAVVYVSGYNPYIFGYWGQGTQVTVSS
polyreactivity (PSR sort gate): low polyreactivity

QVQLVESGGGLVQAGGSLRLSCAASGFIFQANPMGWYRPAPGKERELVAAIDDGDSTYADSVKGRFTISRDNAKNTVYLQMNSLKPEDTAVYYCATRRKRSYDYWGHGTQVTVSS
polyreactivity (PSR sort gate): low polyreactivity

QVQLVVSGGRLVQGAGSHRLSSAASGSIFPKYAMGWYRQAPGKERDLVATISYRGGRTYYADSVKGRFTISRDNAKNTVNLQMNCLKPEDTAVYYCNAHSQAKLDYWGQGSQVTVSS
polyreactivity (PSR sort gate): low polyreactivity

QVQLVESGGGLVQAGGSLRLSCAASGIIFPWYAMGWYRPAPGKERELVAAISGSGGSTYYADSVKGRFTISRDNAKNTVYLQMNSLKPEDTAVYYCAAYPRGSQRYNYGGQGTQVTVSS
polyreactivity (PSR sort gate): high polyreactivity

QVQLVESGGGLVQAGGSLRLSGAASGFIFIGYTMGWYRQAPGKAWELVATISLGDDSTYYADSVKGRFTISRDNAKNTVYLQMNSLKPEDTAVYYCAGDQKDGTTSAYDYCGQGTQVTVSS
polyreactivity (PSR sort gate): low polyreactivity

QVQLVESGGGLVQAGGSLRLSCAASGRIFSIYAMGSYRQAPGKERELVAAISFRGTSTYADSVKGRFTISRDNAKNTVYLQMNSLKPEDTAVYYCAVTGFDFLWPSLGGELDYWGQGTQVTVSS
polyreactivity (PSR sort gate): low polyreactivity

QVQLVESGGGLVQAGGSLLLSCAASGSTFIPYAMGWYRQAPWKERELVAAITWSSGSTYYADSVKVRFTISRDNAKNTVFLQMNSLKTEDTAVYYCARDRYSVFDYDYWGQGTQVTVSS
polyreactivity (PSR sort gate): low polyreactivity

QVQLVESGGGLVQAGGSLRLSCAASAMGRYRQAPGKERELVAGITSSGGSTYYADSVKGRFTISRDNAKNTVYLQMNSLKPEDTAVYYCNADNAGYGYWSYPYYYWGQGTQVTVSS
polyreactivity (PSR sort gate): low polyreactivity

QVQHVESGGGLVQAGGSLRLSCAASGRTFSWYVMGWYRQSPGKERELVAAISWNGGRTYYADSVKGRFTISRDNAKNTVYLQMNSLKPEDTAVYYCAAKSYHGYPFDYWGQGTQVTVSS
polyreactivity (PSR sort gate): high polyreactivity

QVQLVESGGGLVQAGGSLRLSCASSGSTFDYYVMGWYRQEPGIVRELVASISSGGSTYYADSVKGRFTISRDNAKNTVYLQMNSLKPEDTAVYYCAARYYGRVGGYSIGYNYWGQGTQVTVSS
polyreactivity (PSR sort gate): high polyreactivity

QVQLVESGGGLVQAGGSLRLSCAASGSIFYTYAMGWYRQAPWKEREFVAASTGTGVRTYYADSVKGRFTISRDNAKNTVYLPMNSLKPEDTAVYYCAAVSAYRWIGLTNYSTYGYWGQGTQVTVSS
polyreactivity (PSR sort gate): high polyreactivity

QVQLVESGGCLVQAGGSLRLSCAASGRTFSYYAMGWYRQAPGKVRELVAAISRRGGSTTYADSVKGRFTISRDNAKNTVYLQMNSLKPEDTAVYYCNTYPPAHREYASWGQGTQVTVSS
polyreactivity (PSR sort gate): high polyreactivity

QVQLVESGGGLVQAGGSLRLSCAASGGTLGTYAMGWYRQAPGKERELVASIDSGDSTYYADSVKGRFTISRDNAKNTVYLQMNSLKPEDTAVYYCAAAYFRRYTTTWYGYEYWGQGTQVTVSS
polyreactivity (PSR sort gate): low polyreactivity

QVQLVDSGGGLVQAVGSLRLSCAASGSIFRLNAMGWYRQAPGKERDLVGAITWSDSSTYYADSVKGRFTISRDNAKNTVYLQMNSLKPEDTAVYYCAADPQSYKYDYWGQGTQVTVSS
polyreactivity (PSR sort gate): low polyreactivity

QVQLVESWGGLVQAGGSLRLSCAASGRIFKTYAMGWYRQAPGNEREFFAAITSSGGSTYYADSVKGRFTISRDHAKNTVYLQKNSLNPEDTAVYYCNAGSLHRRYYYEGDYWGQGTQVTVSS
polyreactivity (PSR sort gate): high polyreactivity

QVQLVESGGGLVQAGGSLRLSCAASGSTFLITALGWYRQAPGKEREFVADISSSDGSTYYADSVKGRFTISRDNAKNTVYLQMNSLKPEDTAVYYCAAAHVEGSYHKYYYWGQGTQVTVSS
polyreactivity (PSR sort gate): high polyreactivity

QVQLVESGGGLVQAGGSLRLSCASSGRIFGGYAMGWYRQAPGTELELVAAISSGGSTYYADSVKGRFTISRDNAKNTVYLQMNSLKPEDTAVYYCYAYYPWRWGSYPFDYWGQGTQVTVSS
polyreactivity (PSR sort gate): high polyreactivity

QVQLVESGGGLVQAGGSLRLICAASGRTFINYAMGWSRQAPGKERELVAAITTGGRTNYADSVKGRFTISRDNAKNTVYLQMKSLKPEDTAVYYCAADRYYWGRYTLNYWGQGTQVTVSS
polyreactivity (PSR sort gate): low polyreactivity

QVQLVESGGGLVQAGGSLRLSCAASGSTFVDNALGGYRQAPGKERELVAGISIGGITYYADSVKGRFTISRDNAKNTVYLQMNSLKPEDTAVYYCAKRHKRTRNKYYYWGQGTQVTVSS
polyreactivity (PSR sort gate): high polyreactivity

QVQLVESGGGLVQAGGSLRLSCAASGSIFSANAMGWYRQAPGKERELVAAISSSGNTNYSDSVKWRFTISRDNAKNTFYLQMNSLKPEDTAVYYCAVELKQVTPGLGYITLDYWGQGTQVTVSS
polyreactivity (PSR sort gate): low polyreactivity

QVQLVESGGGLFKAGGSLRLRCAPSGSIFDYNTMAWYRQAPGKERQFVAAISSARGGTSYADSVKGRFTISRDNAKNTVYLQMNSLKPEDTAVYYCAALIILTPYQRQYWKYGAYFYWGQGTQVTVSS
polyreactivity (PSR sort gate): high polyreactivity

QVQLVESGGGLVQAGGSLRLSCAASGSIFDWYVMGWYRQPPGKERELVATITRDGSTNYADSVKGRFTISRDNAKNTVYLQMNSLKPEDTAVYYCNAASRAYGYNYWGQGTQVTVSS
polyreactivity (PSR sort gate): low polyreactivity

QVQLVESGGGLVQAGGSLRLSCAASGRTIYRYGMGWYRQAPGKERELVADITWRGDSTYYADSVKGRFTISRDNAKNTVYLQMNCLKPEDTAVYYCATRPRGYRWGKLYDYWGQGTQVTVSS
polyreactivity (PSR sort gate): high polyreactivity

QVHLVESGGGLVQAGGSLRLSCAASGITFSKYEMGWYRQAPWKERELVAAITSTGSTYYADSVKGRFTISRDNAKNTVYLQMNSVKPEDTAVYYCAAERRVFYYCHKLTYWYDYWGQGTQVTVSS
polyreactivity (PSR sort gate): low polyreactivity

QVQLVESGGGLVQAGGSLRLICAASGSTFTQNAMGWYRQAPGKERELVAAISSSGTRTYYADSVKGRFTISRDNAKNTVYLQMNSLKPEDTAVYYCAATVYPSVYGENHYGYWGQGTKVTVSS
polyreactivity (PSR sort gate): high polyreactivity
